Substitutions are numbered along the chain they refer to. Names may count otherwise. Values belong to the binder of their own block, whether it stands above or below them.
Target: T1, CD3 epsilon homodimer protein (UniProt P07766 23-126)
T1 construct: Construct of the homodimer is not described; also called CD3 (CD3 epsilon)
Experiment: SPR Biacore T200, CD3e homodimer on chip, antibody analyte;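 further: CD3 epsilon homodimer amine-coupled on CM4 sensor chip, antibodies injected as analyte at 25 °C in HBS-EP+, ratio ≥0.8 taken as binding retained versus unaltered parent antibody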

T1 sequence (P07766 23-126): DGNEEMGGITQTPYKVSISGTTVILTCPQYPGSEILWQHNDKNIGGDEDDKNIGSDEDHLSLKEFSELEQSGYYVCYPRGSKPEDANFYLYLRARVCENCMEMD

ratio of amounts bound (altered form/GLS3000): 0.97
B1: GLS3000 S56T one-arm antibody (antibody, human IgG1, kappa, L234A L235A, N297A, name in Kabat numbering)
light: DIVMTQSPLSLPVTPGEPASISCRSSQSLVHSNRNTYLHWYQQKPGQAPRLLIYKVSNRFTGVPDRFSGSGSGTDFTLKISRVEAEDVGVYYCGQGTQVPYTFGQGTKLEIKRTVAAPSVFIFPPSDEQLKSGTASVVCLLNNFYPREAKVQWKVDNALQSGNSQESVTEQDSKDSTYSLSSTLTLSKADYEKHKVYACEVTHQGLSSPVTKSFNRGEC
heavy: QVQLVESGGGVVQPGRSLRLSCAASGFTFSNAWMHWVRQAPGKGLEWVAQIKAKSNNYATYYAESVKGRFTISRDDSKNSLYLQMNSLKTEDTAVYYCRYVHYGAYYGVDAWGQGTTVTVSSASTKGPSVFPLAPSSKSTSGGTAALGCLVKDYFPEPVTVSWNSGALTSGVHTFPAVLQSSGLYSLSSVVTVPSSSLGTQTYICNVNHKPSNTKVDKKVEPKSCDKTHTCPPCPAPEAAGGPSVFLFPPKPKDTLMISRTPEVTCVVVDVSHEDPEVKFNWYVDGVEVHNAKTKPREEQYASTYRVVSVLTVLHQDWLNGKEYKCKVSNKALPAPIEKTISKAKGQPREPQVYTLPPSRCELTKNQVSLSCAVKGFYPSDIAVEWESNGQPENNYKTTPPVLDSDGSFFLVSKLTVDKSRWQQGNVFSCSVMHEALHNHYTQKSLSLSPDYKDDDDK
chain: EPKSSDKTHTCPPCPAPELLGGPSVFLFPPKPKDTLMISRTPEVTCVVVDVSHEDPEVKFNWYVDGVEVHNAKTKPREEQYNSTYRVVSVLTVLHQDWLNGKEYKCKVSNKALPAPIEKTISKAKGQPREPQVCTLPPSRDELTKNQVSLWCLVKGFYPSDIAVEWESNGQPENNYKTTPPVLDSDGSFFLYSKLTVDKSRWQQGNVFSCSVMHEALHNRYTQKSLSLSP

ratio of amounts bound (altered form/GLS3000): 0.95
B2: GLS3000 S56V one-arm antibody (antibody, human IgG1, kappa, L234A L235A, N297A, name in Kabat numbering)
light: B1 light with T61V
heavy: B1 heavy
chain: B1 chain

ratio of amounts bound (altered form/GLS3000): 0.32
B3: GLS3000 V51P one-arm antibody (antibody, human IgG1, kappa, L234A L235A, N297A, name in Kabat numbering)
light: B1 light with V56P, T61S
heavy: B1 heavy
chain: B1 chain

ratio of amounts bound (altered form/GLS3000): 0.81
B4: GLS3000 V51I one-arm antibody (antibody, human IgG1, kappa, L234A L235A, N297A, name in Kabat numbering)
light: B1 light with V56I, T61S
heavy: B1 heavy
chain: B1 chain

ratio of amounts bound (altered form/GLS3000): 0.18
B5: GLS3000 T92D one-arm antibody (antibody, human IgG1, kappa, L234A L235A, N297A, name in Kabat numbering)
light: B1 light with T61S, T97D
heavy: B1 heavy
chain: B1 chain

ratio of amounts bound (altered form/GLS3000): 0.5
B6: GLS3000 V94E one-arm antibody (antibody, human IgG1, kappa, L234A L235A, N297A, name in Kabat numbering)
light: B1 light with T61S, V99E
heavy: B1 heavy
chain: B1 chain

ratio of amounts bound (altered form/GLS3000): 1.46
B7: GLS3000 S56Y one-arm antibody (antibody, human IgG1, kappa, L234A L235A, N297A, name in Kabat numbering)
light: B1 light with T61Y
heavy: B1 heavy
chain: B1 chain

ratio of amounts bound (altered form/GLS3000): 0.42
B8: GLS3000 T92L one-arm antibody (antibody, human IgG1, kappa, L234A L235A, N297A, name in Kabat numbering)
light: B1 light with T61S, T97L
heavy: B1 heavy
chain: B1 chain

ratio of amounts bound (altered form/GLS3000): 0.97
B9: GLS3000 T31I one-arm antibody (antibody, human IgG1, kappa, L234A L235A, N297A, name in Kabat numbering)
light: B1 light with T36I, T61S
heavy: B1 heavy
chain: B1 chain

ratio of amounts bound (altered form/GLS3000): 0.49
B10: GLS3000 T31E one-arm antibody (antibody, human IgG1, kappa, L234A L235A, N297A, name in Kabat numbering)
light: B1 light with T36E, T61S
heavy: B1 heavy
chain: B1 chain

ratio of amounts bound (altered form/GLS3000): 0.63
B11: GLS3000 T92A one-arm antibody (antibody, human IgG1, kappa, L234A L235A, N297A, name in Kabat numbering)
light: B1 light with T61S, T97A
heavy: B1 heavy
chain: B1 chain

ratio of amounts bound (altered form/GLS3000): 0.89
B12: GLS3000 V94D one-arm antibody (antibody, human IgG1, kappa, L234A L235A, N297A, name in Kabat numbering)
light: B1 light with T61S, V99D
heavy: B1 heavy
chain: B1 chain

ratio of amounts bound (altered form/GLS3000): 0.31
B13: GLS3000 T31P one-arm antibody (antibody, human IgG1, kappa, L234A L235A, N297A, name in Kabat numbering)
light: B1 light with T36P, T61S
heavy: B1 heavy
chain: B1 chain

ratio of amounts bound (altered form/GLS3000): 0.31
B14: GLS3000 T97P one-arm antibody (antibody, human IgG1, kappa, L234A L235A, N297A, name in Kabat numbering)
light: B1 light with T61S, T102P
heavy: B1 heavy
chain: B1 chain

ratio of amounts bound (altered form/GLS3000): 1.04
B15: GLS3000 T31K one-arm antibody (antibody, human IgG1, kappa, L234A L235A, N297A, name in Kabat numbering)
light: B1 light with T36K, T61S
heavy: B1 heavy
chain: B1 chain

ratio of amounts bound (altered form/GLS3000): 0.32
B16: GLS3000 T31N one-arm antibody (antibody, human IgG1, kappa, L234A L235A, N297A, name in Kabat numbering)
light: B1 light with T36N, T61S
heavy: B1 heavy
chain: B1 chain

ratio of amounts bound (altered form/GLS3000): 1.38
B17: GLS3000 S56W one-arm antibody (antibody, human IgG1, kappa, L234A L235A, N297A, name in Kabat numbering)
light: B1 light with T61W
heavy: B1 heavy
chain: B1 chain

ratio of amounts bound (altered form/GLS3000): 0.26
B18: GLS3000 T92P one-arm antibody (antibody, human IgG1, kappa, L234A L235A, N297A, name in Kabat numbering)
light: B1 light with T61S, T97P
heavy: B1 heavy
chain: B1 chain

ratio of amounts bound (altered form/GLS3000): 0.34
B19: GLS3000 T92I one-arm antibody (antibody, human IgG1, kappa, L234A L235A, N297A, name in Kabat numbering)
light: B1 light with T61S, T97I
heavy: B1 heavy
chain: B1 chain

ratio of amounts bound (altered form/GLS3000): 0.17
B20: GLS3000 T92E one-arm antibody (antibody, human IgG1, kappa, L234A L235A, N297A, name in Kabat numbering)
light: B1 light with T61S, T97E
heavy: B1 heavy
chain: B1 chain

ratio of amounts bound (altered form/GLS3000): 0.64
B21: GLS3000 V51E one-arm antibody (antibody, human IgG1, kappa, L234A L235A, N297A, name in Kabat numbering)
light: B1 light with V56E, T61S
heavy: B1 heavy
chain: B1 chain

ratio of amounts bound (altered form/GLS3000): 0.96
B22: GLS3000 T92S one-arm antibody (antibody, human IgG1, kappa, L234A L235A, N297A, name in Kabat numbering)
light: B1 light with T61S, T97S
heavy: B1 heavy
chain: B1 chain

ratio of amounts bound (altered form/GLS3000): 0.84
B23: GLS3000 V51G one-arm antibody (antibody, human IgG1, kappa, L234A L235A, N297A, name in Kabat numbering)
light: B1 light with V56G, T61S
heavy: B1 heavy
chain: B1 chain

Source: patent publication US20240270846A1 (published 2024)
